# Laboratory results: US20200190192A1 (SUTRO BIOPHARMA, published 2020)
# Numbering of substitutions follows the chain as printed. In names and notes the source's numbering stands. Like-named read-outs stand apart in the source and are kept apart here.
# T1: cynomolgus Tim-3 expressed on CHO cells (cynomolgus monkey)
# T1 construct: also called cTim-3; Cyno Tim-3 (CHO)
# T1 chain: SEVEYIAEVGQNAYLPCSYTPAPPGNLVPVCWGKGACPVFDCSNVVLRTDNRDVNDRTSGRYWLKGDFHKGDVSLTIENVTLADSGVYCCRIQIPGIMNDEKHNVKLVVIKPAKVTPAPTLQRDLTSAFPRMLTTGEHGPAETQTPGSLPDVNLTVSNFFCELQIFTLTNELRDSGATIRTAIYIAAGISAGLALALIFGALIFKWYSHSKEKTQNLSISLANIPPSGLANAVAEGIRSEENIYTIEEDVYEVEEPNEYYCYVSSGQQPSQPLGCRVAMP
# B1: h22E11-VK2-28 × h22E11-VH1-69 (antibody, V domains shown)
# VH: QVQLVQSGAEVKKPGSSVKVSCKVSGFSLTSYGVHWVRQAPGQGLEWLVVIWSDGSTTYNQKFQGRVTITKDESTSTVYMELSSLRSEDTAVYYCARQGGYRYDDAMDYWGQGTLVTVSS
# VL: DIVLTQSPLSLPVTPGEPASISCKASQSVDYDGNSYVNWYLQKPGQSPQLLIYAASNLESGVPDRFSGSGSGTDFTLKISRVEAEDVGVYYCQQSNEDPYTFGQGTKVEIK
# notes: Humanized m22E11
# B2: h22E11-VK2-28 × h22E11-VH4-30-4 (antibody, V domains shown)
# VH: QVQLQESGPGLVKPSQTLSLTCTVSGFSLTSYGVHWIRQPPGKGLEWLVVIWSDGSTTYNPSLKSRVTISKDTSKNQVSLKLSSVTAADTAVYYCARQGGYRYDDAMDYWGQGTLVTVSS
# VL: B1 VL
# notes: Humanized m22E11
# B3: h22E11-VK2-28 × h22E11-VH5-51 (antibody, V domains shown)
# VH: EVQLVQSGAEVKKPGESLKISCKVSGFSLTSYGVHWVRQMPGKGLEWLVVIWSDGSTTYNPSFQGQVTISKDKSISTVYLQWSSLKASDTAMYYCARQGGYRYDDAMDYWGQGTLVTVSS
# VL: B1 VL
# notes: Humanized m22E11
# B4: h22E11-VK4-1 × h22E11-VH1-69 (antibody, V domains shown)
# VH: B1 VH
# VL: DIVLTQSPDSLAVSLGERATINCKASQSVDYDGNSYVNWYQQKPGQPPKLLIYAASNLESGVPDRFSGSGSGTDFTLTISSLQAEDVAVYYCQQSNEDPYTFGQGTKVEIK
# notes: Humanized m22E11
# B5: h22E11-VK2-28 × h22E11-VH3-23 (antibody, V domains shown)
# VH: EVQLLESGGGLVQPGGSLRLSCAVSGFSLTSYGVHWVRQAPGKGLEWLVVIWSDGSTTYNDSVKGRFTISKDNSKNTVYLQMNSLRAEDTAVYYCARQGGYRYDDAMDYWGQGTLVTVSS
# VL: B1 VL
# notes: Humanized m22E11
# B6: h22E11-VK2-28 × h22E11-5-IgG-HC (antibody, V domains shown)
# VH: B5 VH with L5V, D61S, S62A, V63L, G65S, S74A, T77S
# VL: B1 VL
# notes: Humanized m22E11
# B7: SRP1649-B06 (antibody, V domains shown)
# VH: EVQLVESGGGLVQPGGSLRLSCAASGFNISNHAIHWVRQAPGKGLEWVADISPAVGYTDYADSVKDRFTISADTSKNTAYLQMNSLRAEDTAVYYCARGYVYRMWDSFDHWGQGTLVTVSS
# VL: not shown
# notes: IgG with trastuzumab LC; HIS- and FLAG-tagged
# B8: 1353-G10 scFvFc-zwB × 1649-A01 Fab-zwA (parent) (bispecific antibody)
# scFv: not shown
# VH: B7 VH with N31R, H32Y, A33Y, D50G, S52T, A54V, V55R, D59E, F108Y, H110Y
# VL: not shown
# notes: Tim-3 heavy chain carries zwA (T350V/L351Y/F405A/Y407V) in CH3
# B9: SRP1649-E10 (antibody, V domains shown)
# VH: B7 VH with H32N, A33V, A49G, S52M, A54G, V55G, Y57S, F108Y, H110Y
# VL: not shown
# notes: as for B7
# B10: SRP1649-E08 (antibody, V domains shown)
# VH: EVQLVESGGSLVQPGGSLRLSCAASGFSISNYVIHWVRQAPGKGLEWVADISPDGGFTDYADSVKDRFTISADTSKNTAYLQMNSLRAEDTAVYYCARGHVYRLWDSFDYWGRGTLVTVSS
# VL: not shown
# notes: as for B7
# B11: SRP1649-D11 (antibody, V domains shown)
# VH: B7 VH with N31G, H32Y, A33V, S52I, A54T, V55A, D59E, D66G, H110Y
# VL: not shown
# notes: as for B7
# B12: 1353-G10 scFvFc-zwB × 1649-A01 Hc zwA Y56D/TrstmbLC S56D (bispecific antibody)
# scFv: not shown
# VH: EVQLVESGGGLVQPGGSLRLSCAASGFNISRYYIHWVRQAPGKGLEWVAGITPVRGDTEYADSVKDRFTISADTSKNTAYLQMNSLRAEDTAVYYCARGYVYRMWDSYDYWGQGTLVTVSS
# VL: not shown
# notes: Tim-3 heavy chain with zwA CH3 mutations
# B13: SRP1649-C05 (antibody, V domains shown)
# VH: B7 VH with S30G, N31K, A33V, S52V, A54N, V55G, D59E, H110Y
# VL: not shown
# notes: as for B7
# B14: SRP1649-B09 (antibody, V domains shown)
# VH: B7 VH with S30R, H32N, S52T, V55G, D59G, V101I, F108L, H110Y
# VL: not shown
# notes: as for B7
# B15: SRP1649-D06 (antibody, V domains shown)
# VH: B7 VH with S30R, S52A, V55G, F108Y, H110Y
# VL: not shown
# notes: as for B7
# B16: SRP1649-H02 (antibody, V domains shown)
# VH: B12 VH with S30R, R31S, Y33A, G50D, V54A, R55G, D66G, V101I
# VL: not shown
# notes: as for B7
# B17: SRP1649-G08 (antibody, V domains shown)
# VH: B12 VH with R31N, Y33V, G50A, V54D, R55G, D57I, D66G, T69A
# VL: not shown
# notes: as for B7
# B18: 1353-G10 wt IgG (antibody, V domains shown)
# VH: EVQLVQSGAEVKKPGASVKVSCKASGYRFPHYGISWVRQAPGQGLEWMGWISAYNGNTNYAQKLQGRVTMTTDTSTNTAYMELRSLRSDDTAVYYCARDVDYGTGSGYWGQGTLVTVSS
# VL: SYELTQPPSVSVSPGQTARITCSGDALPKQYAYWYQQKPGQAPVMVIYKDTERPSGIPERFSGSSSGTKVTLTISGVQAEDEADYYCQSADNSITYRVFGGGTKVTVL
# notes: IgG; also called Sample I
# B19: 1353-G10 vk1-39 LC IgG (antibody, V domains shown)
# VH: B18 VH
# VL: DIQLTQSPSSLSASVGDRVTITCSGDALPKQYAYWYQQKPGKAPKLLIYKDTERPSGVPSRFSGSSSGTKVTLTISSLQPEDFATYYCQSADNSITYRVFGGGTKVEIK
# notes: IgG; also called Sample K
# B20: 1353-G10 H1/vk1-39 IgG (antibody, V domains shown)
# VH: B18 VH with R28T, P30D, H31S
# VL: B19 VL
# notes: IgG; also called Sample L
# B21: 1353-G10 H1 HC IgG (antibody, V domains shown)
# VH: B18 VH with R28T, P30D, H31S
# VL: B18 VL
# notes: IgG; also called Sample J
# Assays:
# [1] = target: T1, cynomolgus Tim-3 expressed on CHO cells; assay: flow cytometry, CHO-cyno Tim-3 cells
# [2] = target: T2, human Tim-3 expressed on the cell surface (human, UniProt Q8TDQ0 22-301); assay: flow cytometry, activated human CD4+ T cells
# T2 construct: also called hTim-3; Human Tim-3 (CHO)
# [3] = target: T3, recombinant human Tim-3-Fc (R&D Systems, 2365-TM) (human, UniProt Q8TDQ0 22-202, biotinylated in the Galectin-9 competition ELISA (sites not given)); assay: SPR Biacore, human Tim-3 Fc; KD estimated;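 for koff: antibodies captured on an anti-FLAG sensor surface, Tim-3-Fc flowed over as analyte at 25 °C in HBS-EP+ buffer, rates fit with a 1:1 Langmuir model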
# T3 construct: Bought protein; also called huTim-3-Fc; biotinylated Tim-3-Fc; not shown: Fc of the bought fusion protein
# [4] = target: T2, human Tim-3 expressed on the cell …; assay: flow cytometry, CHO-human Tim-3 cells
# [5] = target: T3, recombinant human Tim-3-Fc (R&D …); assay: SPR Biacore, human Tim-3 Fc
# [6] = target: T2, human Tim-3 expressed on the cell …; assay: flow cytometry, CHO-human Tim-3 cells; remark: listed apart in the source
# [7] = target: T1, cynomolgus Tim-3 expressed on CHO cells; assay: flow cytometry, CHO-cyno Tim-3 cells
# [8] = target: T4, human Tim-3 (Biacore analyte; TIM-3-Fc or TIM-3-HIS, not said which) (human, UniProt Q8TDQ0 22-202); assay: SPR Biacore, human Tim-3 (Fc or HIS not said)
# T4 construct: also called TIM-3 antigen; not shown: Fc or HIS tag
# [9] = target: T5, biotinylated recombinant human PD-1 (AcroBiosystems) (human, UniProt Q15116 25-167, limits assumed, biotinylated (sites not given)); assay: competition, flow cytometry: biotin-PD-1 binding to CHO-human PD-L1 cells
# T5 construct: Bought protein; also called biotinylated PD-1
# [10] = target: T4, human Tim-3 (Biacore analyte; TIM-3-Fc …); assay: SPR, Tim-3 analyte
# [11] = target: T2, human Tim-3 expressed on the cell …; assay: flow cytometry, CHO-human Tim-3 cells; parameters: Bmax: unit not given here
# [12] = target: T6, human PD-1 expressed on CHO cells (human, UniProt Q15116 25-288); assay: flow cytometry, CHO-human PD-1 cells; parameters: Bmax: unit not given here
# T6 construct: also called hPD-1; CHO-hPD-1
# [13] = target: PD-1 (SPR analyte of the PD-1 kinetics) (Homo sapiens (Human), UniProt Q15116 25-167, limits assumed); assay: SPR, PD-1 kinetics
# [14] = target: T6, human PD-1 expressed on CHO cells; assay: hPD-1 binding titration (format not named; taken as cell binding)
binder,measurement,setting,value
B1,Kd,[1],1.7 nM
same,Kd,[2],2.3 nM
same,Kd,[3],5.4 nM
same,Kd,[4],0.7 nM
same,koff,[5],0.000863 s⁻¹
B2,Kd,[1],4.3 nM
same,Kd,[2],9.2 nM
same,Kd,[3],7.9 nM
same,Kd,[4],0.8 nM
same,koff,[5],0.00109 s⁻¹
B3,Kd,[1],2.3 nM
same,Kd,[2],0.7 nM
same,Kd,[3],4.8 nM
same,Kd,[4],0.6 nM
same,koff,[5],0.000903 s⁻¹
B4,Kd,[1],2.5 nM
same,Kd,[2],6.3 nM
same,Kd,[3],5.5 nM
same,Kd,[4],1 nM
same,koff,[5],0.000863 s⁻¹
B5,Kd,[1],5.4 nM
same,Kd,[2],1.7 nM
same,Kd,[3],5.9 nM
same,Kd,[4],0.8 nM
same,koff,[5],0.000911 s⁻¹
B6,Kd,[1],4.1 nM
same,Kd,[2],3.3 nM
same,Kd,[3],6.7 nM
same,Kd,[4],0.8 nM
same,koff,[5],0.00101 s⁻¹
B7,Kd,[6],0.2 nM
same,Kd,[7],1.9 nM
same,Kd,[8],66.9 nM
same,koff,[8],0.0126 s⁻¹
same,kon,[8],189000 M⁻¹ s⁻¹
B8,IC50,[9],191 nM
same,Kd,[10],12 nM
same,Bmax,[11],14700
same,Kd,[11],3.9 nM
same,Bmax,[12],13300
same,Kd,[12],1.4 nM
B9,Kd,[6],0.2 nM
same,Kd,[7],7.4 nM
same,Kd,[8],49.7 nM
same,koff,[8],0.014 s⁻¹
same,kon,[8],281000 M⁻¹ s⁻¹
B10,Kd,[6],0.2 nM
same,Kd,[7],12.4 nM
same,Kd,[8],13.5 nM
same,koff,[8],0.00182 s⁻¹
same,kon,[8],135000 M⁻¹ s⁻¹
B11,Kd,[6],0.1 nM
same,Kd,[7],2.2 nM
same,Kd,[8],10.6 nM
same,koff,[8],0.00159 s⁻¹
same,kon,[8],150000 M⁻¹ s⁻¹
B12,IC50,[9],82 nM
same,Bmax,[11],11200
same,Kd,[11],4.5 nM
same,Bmax,[12],13300
same,Kd,[12],2.3 nM
B13,Kd,[6],0.2 nM
same,Kd,[7],0.8 nM
same,Kd,[8],13.7 nM
same,koff,[8],0.00166 s⁻¹
same,kon,[8],121000 M⁻¹ s⁻¹
B14,Kd,[6],0.2 nM
same,Kd,[7],9.4 nM
same,Kd,[8],18.8 nM
same,koff,[8],0.00249 s⁻¹
same,kon,[8],133000 M⁻¹ s⁻¹
B15,Kd,[6],0.1 nM
same,Kd,[7],1 nM
same,Kd,[8],74.6 nM
same,koff,[8],0.0205 s⁻¹
same,kon,[8],275000 M⁻¹ s⁻¹
B16,Kd,[6],0.2 nM
same,Kd,[7],2.2 nM
same,Kd,[8],23.9 nM
same,koff,[8],0.00374 s⁻¹
same,kon,[8],157000 M⁻¹ s⁻¹
B17,Kd,[6],0.2 nM
same,Kd,[7],9.3 nM
same,Kd,[8],12.8 nM
same,koff,[8],0.00243 s⁻¹
same,kon,[8],191000 M⁻¹ s⁻¹
B18,Kd,[13],0.96 nM
same,koff,[13],0.00059 s⁻¹
same,kon,[13],620000 M⁻¹ s⁻¹
same,Bmax,[14],2980
same,Kd,[14],0.1 nM
B19,Kd,[13],0.85 nM
same,koff,[13],0.00049 s⁻¹
same,kon,[13],580000 M⁻¹ s⁻¹
same,Bmax,[14],3630
same,Kd,[14],0.8 nM
B20,Bmax,[14],4940
same,Kd,[14],12.9 nM
B21,Kd,[13],2.3 nM
same,koff,[13],0.0026 s⁻¹
same,kon,[13],1.1e+06 M⁻¹ s⁻¹
same,Bmax,[14],3410
same,Kd,[14],0.5 nM
